This note sets out measurements from patent US20200079865A1 (Bristol-Myers Squibb, published 2020).

For orientation: IC50 means the point on the concentration scale where inhibition reaches its midpoint. A high value points to a need for much substance. What is called EC50 is the concentration that produces a half-maximal response.

The target in experiment [1] is T1, human GITR, membrane bound (on activated human T cells, 3A9-hGITR cells, huGITR knock-in mouse T cells) (human, UniProt Q9Y5U5 26-241).
T1 construct: also called TNFRSF18
T1 sequence: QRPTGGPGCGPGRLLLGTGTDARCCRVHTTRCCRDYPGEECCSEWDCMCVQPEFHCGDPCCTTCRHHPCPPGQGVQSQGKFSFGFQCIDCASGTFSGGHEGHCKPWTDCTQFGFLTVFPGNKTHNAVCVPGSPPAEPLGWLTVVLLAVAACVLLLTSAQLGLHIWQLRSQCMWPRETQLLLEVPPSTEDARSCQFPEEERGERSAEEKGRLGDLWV
The experiment is described as follows: FACS competition on PHA-activated human T cells, pre-bound GITR-L against 0.5 ug/ml 28F3-hIgG1; partial inhibition. The text has this: (§1) The samples were acquired on a FACS Canto Flow Cytometer (BD, San Jose) and analyzed with FlowJo software (Tree Star, Inc, Ashland, Oreg.).

Experiment [2] has as its target T1, human GITR, membrane bound (on …). The experiment is described as follows: FACS (MFI, PE anti-HA tag) on PHA-activated human T cells, CD4 column; the table's row head reads IC50, the text calls it EC50; unit from the axis.
Description: as §1

Experiment [3] has the same target. The experiment is described as follows: FACS (MFI, PE anti-HA tag) on PHA-activated human T cells, CD8 column; the table's row head reads IC50, the text calls it EC50; unit from the axis.
Description: as §1

Experiment [4] shares this target. The experiment is described as follows: FACS on PHA-activated human CD4+ and CD8+ T cells, anti-HA detection.
Description: as §1

For experiment [5] the target is unchanged. The experiment is described as follows: FACS competition on activated human CD4+ T cells: pre-bound GITR-L titrated, then 28F3-hIgG1 at a fixed 0.5 ug/mL, detected with PE anti-human IgG Fc; unit from the axis.
Description: as §1

B1: recombinant hGITR-L trimer (R&D Systems #6987-GL) (ligand)
chain: LQLETAKEPCMAKFGPLPSKWQMASSEPPCVNKVSDWKLEILQNGLYLIYGQVAPNANYNDVAPFEVRLYKNKDMIQTLTNKSKIQNVGGTYELHVGDTIDLIFNSEHQVLKNNTYWGIILLANPQFIS
notes: Bought soluble trimer, detected through a hemagglutinin (HA) tag; also called GITR Ligand; rhGITR-L
Regarding B1, the IC50 in experiment [1] is 0.0024 µg/mL; in experiment [5] it was 0.00244 µg/mL. Besides, the EC50 in experiment [2] is 0.016 µg/mL; in experiment [3], 0.0163 µg/mL; in experiment [4] it was 0.016 µg/mL.
